{
  "source": "patent US20160184454A1",
  "about": "“RAB7L1 INTERACTS WITH LRRK2 TO MODIFY INTRANEURONAL PROTEIN SORTING AND PARKINSON'S DISEASE RISK” (THE TRUSTEES OF COLUMBIA UNIVERSITY IN THE CITY OF NEW YORK, priority 2013, published 2016)",
  "key": {"[1]": {"system": "rat primary cortical neurons", "assay": "Neurite length assay in transfected primary cortical neuron cultures", "assay_type": "cell-based", "excerpt": "As 5 candidate genes are present within the PARK16 locus (SLC45A3, NUCKS, RAB7L1, SLC41A1, and PM20D1), each of the genes were experimentally screened for a functional interaction with LRRK2 (FIG. 2A). A previously-described primary rat neuron in vitro culture model was used, in which transient expression of familial PD-associated LRRK2 G2019S or R1441C mutant alleles leads to a marked reduction in neurite process length (MacLeod et al., 2006). […] RAB7L1 is a small cytosolic GTPase, structurally distinct from RAB7 despite its name (also known as RAB29) (Shimizu et al., 1997). […] But the function of RAB7L1 in CNS neurons remains unknown. Orthologues of RAB7L1 in other organisms, including C. elegans Glo-1 and Drosophila melanogaster Lighloid, have been implicated in trafficking to lysosome-related organelles (Hermann et al., 2005) and in the regulation of neurite process length (Grill et al., 2007), reminiscent of LRRK2 mutant phenotypes (MacLeod et al., 2006). Thus this gene was of particular interest.\nSprague-Dawley rat or mouse PI primary dissociated cortical cultures were prepared and transfected essentially as described (Xia et al., 1996) with the following modifications: cells were plated at high density, approximately 250,000 cells/cm2, in 24-well plates with 500 ul medium/well. Culture medium used for plating cells was Neurobasal-A supplemented with 2% B-27 and 10% FBS. At 1 day after plating, medium was changed to reduced serum (1% FBS+added antimitotic agents: 70 μM uridine and 25 μM 5-fluorodeoxyuridine) and replaced weekly thereafter; for transfections no DMSO was added to the transfection mixture, cells were not subjected to glycerol shock, and a total of 3 μg plasmid DNA was used per well. Cells were fixed in 4% PFA and immunostained with mouse α-RAB7L1 (Santa Cruz, 1:100), and rabbit monoclonal α-LRRK2 (Michal J. Fox Foundation MJFF4, 1:100), then with appropriate fluorescent secondaries (Jackson, 1:1000-2000). Neurite length and neurite puncta (defined as swellings greater than 2 um in diameter) were counted for at least 20 neurons per condition. Mean puncta number per neuron was normalized to total average neurite length versus wild-type LRRK2 transfected cells. Fluorescent microscopy was performed using a Nikon TE 2000-S microscope and a Zeiss LSM510 Meta confocal microscope. Images were analyzed using Image-Pro Plus (Mediacybernetics) software version 5.1.0.20."}, "[2]": {"molecular_target": "T1, human wild-type LRRK2 (BAC transgene, mouse brain) (human, UniProt Q5S007 1-2527)", "T1 construct": "Untagged human LRRK2 expressed from a BAC construct in transgenic mice; It was immunoprecipitated from whole brain lysate with an anti-LRRK2 antibody; The lysate also holds endogenous mouse LRRK2; also called LRRK2 wild type transgenic (WT); LRRK2-WT", "T1 sequence (Q5S007 whole entry R50H)": "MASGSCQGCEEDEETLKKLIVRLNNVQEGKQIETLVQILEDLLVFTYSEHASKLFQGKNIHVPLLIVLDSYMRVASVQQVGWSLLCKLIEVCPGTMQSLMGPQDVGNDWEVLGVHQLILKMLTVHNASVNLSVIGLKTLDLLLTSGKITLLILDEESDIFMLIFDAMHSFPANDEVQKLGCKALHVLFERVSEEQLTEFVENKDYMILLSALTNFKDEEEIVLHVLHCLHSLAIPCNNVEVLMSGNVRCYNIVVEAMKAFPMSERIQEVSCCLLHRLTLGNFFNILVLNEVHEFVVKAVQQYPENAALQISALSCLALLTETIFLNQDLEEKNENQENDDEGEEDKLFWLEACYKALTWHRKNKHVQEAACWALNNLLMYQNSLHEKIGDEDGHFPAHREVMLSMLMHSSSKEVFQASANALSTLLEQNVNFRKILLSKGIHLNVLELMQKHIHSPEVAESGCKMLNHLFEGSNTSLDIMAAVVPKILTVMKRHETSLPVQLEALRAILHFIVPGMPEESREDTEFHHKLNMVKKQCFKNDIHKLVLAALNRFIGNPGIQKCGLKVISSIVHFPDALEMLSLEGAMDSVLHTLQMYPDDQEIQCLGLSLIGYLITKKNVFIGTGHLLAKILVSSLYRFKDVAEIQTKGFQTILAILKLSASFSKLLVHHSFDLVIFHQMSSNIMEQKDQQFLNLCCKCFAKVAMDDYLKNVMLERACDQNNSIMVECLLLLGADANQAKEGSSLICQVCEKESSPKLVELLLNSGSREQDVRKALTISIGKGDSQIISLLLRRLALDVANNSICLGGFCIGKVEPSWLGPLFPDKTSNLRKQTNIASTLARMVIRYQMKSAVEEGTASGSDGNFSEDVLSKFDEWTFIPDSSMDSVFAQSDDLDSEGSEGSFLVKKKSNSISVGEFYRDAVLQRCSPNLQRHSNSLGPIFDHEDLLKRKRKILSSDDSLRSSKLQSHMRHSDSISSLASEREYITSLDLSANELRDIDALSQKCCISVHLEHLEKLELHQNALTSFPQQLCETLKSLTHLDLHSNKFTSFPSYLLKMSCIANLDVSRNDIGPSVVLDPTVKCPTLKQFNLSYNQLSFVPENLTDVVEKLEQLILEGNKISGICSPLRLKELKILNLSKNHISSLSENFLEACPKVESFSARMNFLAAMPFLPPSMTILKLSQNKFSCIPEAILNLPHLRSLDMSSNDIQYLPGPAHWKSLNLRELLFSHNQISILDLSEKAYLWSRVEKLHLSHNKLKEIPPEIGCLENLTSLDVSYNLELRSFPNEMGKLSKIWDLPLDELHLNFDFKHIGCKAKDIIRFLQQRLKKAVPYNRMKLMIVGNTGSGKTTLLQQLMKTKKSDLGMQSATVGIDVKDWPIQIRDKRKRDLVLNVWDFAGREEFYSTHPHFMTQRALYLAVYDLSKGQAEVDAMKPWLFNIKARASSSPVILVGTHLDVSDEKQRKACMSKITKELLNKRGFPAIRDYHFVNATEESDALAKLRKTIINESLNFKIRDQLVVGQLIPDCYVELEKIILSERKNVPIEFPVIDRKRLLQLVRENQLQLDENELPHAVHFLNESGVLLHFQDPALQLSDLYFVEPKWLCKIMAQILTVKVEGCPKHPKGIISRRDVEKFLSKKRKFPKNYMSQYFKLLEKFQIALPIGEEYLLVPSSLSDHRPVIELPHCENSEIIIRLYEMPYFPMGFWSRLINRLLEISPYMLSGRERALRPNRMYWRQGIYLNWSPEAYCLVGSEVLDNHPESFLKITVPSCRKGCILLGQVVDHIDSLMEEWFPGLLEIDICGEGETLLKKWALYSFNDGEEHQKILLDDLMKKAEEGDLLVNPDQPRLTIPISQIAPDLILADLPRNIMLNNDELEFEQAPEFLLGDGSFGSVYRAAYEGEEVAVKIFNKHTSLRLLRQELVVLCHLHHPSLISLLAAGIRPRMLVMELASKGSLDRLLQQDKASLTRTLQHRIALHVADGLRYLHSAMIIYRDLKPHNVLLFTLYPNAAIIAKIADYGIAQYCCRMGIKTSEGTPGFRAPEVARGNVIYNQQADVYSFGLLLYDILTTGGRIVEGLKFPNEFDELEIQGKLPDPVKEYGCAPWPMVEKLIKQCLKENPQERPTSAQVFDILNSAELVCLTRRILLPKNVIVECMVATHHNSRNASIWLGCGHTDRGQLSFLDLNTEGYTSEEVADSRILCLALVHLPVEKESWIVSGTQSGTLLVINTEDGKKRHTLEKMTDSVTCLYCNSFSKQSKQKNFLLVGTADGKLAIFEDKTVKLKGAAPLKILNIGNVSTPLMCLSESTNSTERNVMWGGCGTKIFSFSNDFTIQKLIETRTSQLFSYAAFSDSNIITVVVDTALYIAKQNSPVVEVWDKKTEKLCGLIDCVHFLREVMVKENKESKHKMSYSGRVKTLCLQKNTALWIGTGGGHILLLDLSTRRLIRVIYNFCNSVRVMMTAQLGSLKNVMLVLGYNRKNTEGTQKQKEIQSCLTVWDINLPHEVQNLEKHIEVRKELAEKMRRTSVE", "assay": "immunoprecipitation of LRRK2 with a rabbit monoclonal antibody from transgenic mouse brain lysates, Western blot for RAB7L1"}, "[3]": {"system": "primary rat cortical neurons", "assay": "MPR sorting / colocalization analysis (Golph4, LAMP2, EEA1) in primary neurons", "assay_type": "cell-based", "details": "in the context of LRRK2 G2019S expression", "excerpt": "A cellular role for the LRRK2-RAB7L1 pathway was investigated. Prior studies have broadly implicated both of these gene products in intracellular sorting (Sakaguchi-Nakashima et al., 2007; Spano et al., 2011). Expression of the LRRK2 G2019S clinical mutation in rat primary neurons induced lysosomal swelling, as quantified by immunostaining for the lyosomal marker LAMP2 or using the lysosomotropic dye Lysotracker, consistent with prior work and other studies (Dodson et al., 2012; MacLeod et al., 2006; Stafa et al., 2012) (FIG. 6A). In addition to lysosomal enlargement, there was significant reduction in lysosomal accumulation of the cation-independent mannose 6-phosphate receptor (MPR) in terms of the fraction of LAMP2-positive structures stained with MPR. As MPR is required also for the recruitment of lysosomal hydrolases, its deficiency is predicted to lead to functional lysosomal deficits.\nMPR is typically recycled between the endolysosome compartment and the Golgi apparatus by the retromer complex (Arighi et al., 2004; Bonifacino and Hurley, 2008; Seaman, 2009; St. George-Hyslop et al., 2009). […]\nPrimary rat cortical neurons were cultured on glass coverslips, transfected, and fixed as previously described in this methods section. […] Images were analysed using NIH ImageJ software version 1.45."}, "[4]": {"molecular_target": "T2, LRRK2 (Homo sapiens, UniProt Q5S007)", "T2 construct": "Plasmids encoding full-length human LRRK2 (wild-type, G2019S, K1906M) tagged with 3×FLAG at the N-terminus were used; expressed in transfected cells; host or cells: HEK293T", "assay": "Co-immunoprecipitation of LRRK2 and RAB7L1 from transfected HEK293T cells", "assay_type": "binding", "details": "HEK293T lysates, 3×Flag-LRRK2 and GFP-RAB7L1, 48 hrs", "description": "Next more direct evidence of a physical interaction between LRRK2 and RAB7L1 was sought and thus co-immunoprecipitation studies were performed. Epitope-tagged forms of LRRK2 and RAB7L1 (3×Flag-LRRK2 and GFP-RAB7L1) were co-transfected into HEK293T cells, and after 48 hrs, cell lysates were immunoprecipitated with an anti-Flag antibody and then probed for RAB7L1. […] Similarly, immunoprecipitation of RAB7L1 with an antibody to the GFP tag co-precipitated LRRK2 only in the presence of RAB7L1-GFP (FIG. 3B). To probe for an interaction between LRRK2 and RAB7L1 in a more physiological context, RAB7L1 protein was examined in brain lysates from transgenic mice that harbor human wild-type LRRK2 or a familial PD mutant form of LRRK2, R1441C, within a large bacterial artificial chromosome (BAC) construct. Transgenic LRRK2 is broadly expressed throughout the CNS of these mice, although at relatively low levels (FIG. 10A). Brain tissue lysates were immunoprecipitated for LRRK2 protein with a rabbit monoclonal antibody.\nFor cultured cells, HEK293T cells transfected for 48 hours were lysed with lysis buffer containing 0.5% Triton-X. 1 mM EDTA and protease inhibitor cocktail (Sigma). The lysates were rotated at 4° C. for 1 hr followed by centrifugation at 20,000 g for 5 min. […]"}},
  "data": [
    {"molecule": "RAB7L1 protein in mouse brain lysate (endogenous) (enzyme, UniProt Q91YQ1 1-204, looked up, Detected by Western blot (Santa Cruz sc-81924) after LRRK2 immunoprecipitation) MGSRDHLFKVLVVGDAAVGKTSLVQRYSQDSFSKHYKSTVGVDFALKVLQWSDSEMVRLQLWDIAGQERFTSMTRLYYRDASACVIMFDVTNATTFSNSQRWKQDLDSKLTLPSGEPVPCLLLANKSDLSPWAVSRDQIDRFSKENGFTGWTETSVKENKNINEAMRVLVEKMMNNSREDVMSLSTQGNYINLQAKPSSGWTCC", "values": [
      {"measurement": "LRRK2 mutation-induced neurite length phenotype", "setting": "[1]; co-transfection with LRRK2 G2019S (0.5 μg/well), test vector 1 μg/well", "result": "significantly suppressed the LRRK2 mutation-induced neurite length phenotype"},
      {"measurement": "reduced neurite length", "setting": "[1]; in the context of VPS35 knockdown by shRNA", "result": "not rescued"},
      {"measurement": "neurite length", "setting": "[1]; in the context of overexpression of wild-type LRRK2", "result": "did not modify neurite length"},
      {"measurement": "binding result", "setting": "[2]", "result": "binds"},
      {"measurement": "lysosomal phenotypes (swollen lysosomes, reduced lysosomal MPR)", "setting": "[3]", "result": "suppressed the lysosomal phenotypes"},
      {"measurement": "co-immunoprecipitation with LRRK2", "setting": "[4]", "result": "effectively co-precipitated"}
    ]}
  ]
}
